Measured values from paper PMC2824762, “Analysis of the role of PCNA-DNA contacts during clamp loading” (BMC Structural Biology, 2010).

Columns and labels:
[1] = molecular target: single-chain PCNA (three fused PCNA subunits) (Saccharomyces cerevisiae, UniProt P15873;P15873;P15873 1-257;2-257;2-258, R110S;Y114S); assay: X-ray crystallography; 3.0 A; DNA tilted ~40 deg, partly disordered, refined as rigid body; pH 4.6; Anisotropy: 30 mM Tris pH 7.5, 200 mM NaCl, 2 mM DTT, 1 mM ATPgS, 10 mM MgCl2, 100 nM TAMRA-DNA, 1 uM PCNA, 25 C. Crystals: 100 mM Na acetate pH 4.6, 100 mM NaCl, 14% PEG 4K, 20 C; conditions: protein: recombinant; tags: N-terminal 6-His, PreScission-cleavable; copies: 1;1;1; label: Cy5 at 5' end of primer strand; 5' overhang 4 nt on template, 10 bp duplex
[2] = molecular target: the molecule itself; assay: crystal structure; single-chain PCNA (three subunits joined on one chain) with a 10-base pair DNA; hanging drop, 100 mM Na acetate pH 4.6, 100 mM NaCl, 14% PEG 4K, 20°C; space group P2(1)2(1)2(1); 3.0 Å
[3] = molecular target: T1, RFC (Replication Factor C clamp loader);PCNA K20A/K77A/R80A/R149A (Saccharomyces cerevisiae;Saccharomyces …, UniProt P38630;P40348;P38629;P40339;P38251;P15873 1-861;1-353;2-340;1-323;1-354;1-258, |K20A;K77A;R80A;R149A); assay: fluorescence anisotropy; RFC titrated; 1 uM mutant PCNA, 1 mM ATPgS, 10 mM MgCl2; Anisotropy: 30 mM Tris pH 7.5, 200 mM NaCl, 2 mM DTT, 1 mM ATPgS, 10 mM MgCl2, 100 nM TAMRA-DNA, 1 uM PCNA, 25 C. Crystals: 100 mM Na acetate pH 4.6, 100 mM NaCl, 14% PEG 4K, 20 C; conditions: protein: recombinant;recombinant; tags: ;N-terminal 6-His, PreScission-cleaved; copies: 1;1;1;1;1;3; label: TAMRA at 5' end of template strand; 5' overhang 10 nt on template (3' recessed primer), 30 bp duplex
[4] = molecular target: T2, RFC (Replication Factor C clamp loader);PCNA wild-type (Saccharomyces cerevisiae;Saccharomyces …, UniProt P38630;P40348;P38629;P40339;P38251;P15873 1-861;1-353;2-340;1-323;1-354;1-258, |); assay: fluorescence anisotropy; RFC titrated; 1 uM PCNA, 1 mM ATPgS, 10 mM MgCl2; Anisotropy: 30 mM Tris pH 7.5, 200 mM NaCl, 2 mM DTT, 1 mM ATPgS, 10 mM MgCl2, 100 nM TAMRA-DNA, 1 uM PCNA, 25 C. Crystals: 100 mM Na acetate pH 4.6, 100 mM NaCl, 14% PEG 4K, 20 C; conditions: protein: recombinant;recombinant; tags: ;N-terminal 6-His, PreScission-cleaved; copies: 1;1;1;1;1;3; label: TAMRA at 5' end of template strand; 5' overhang 10 nt on template (3' recessed primer), 30 bp duplex
[5] = molecular target: T2, RFC (Replication Factor C clamp …); assay: fluorescence anisotropy; RFC titrated; 1 uM PCNA, 1 mM ATPgS, 10 mM MgCl2; Kd only in figure; Anisotropy: 30 mM Tris pH 7.5, 200 mM NaCl, 2 mM DTT, 1 mM ATPgS, 10 mM MgCl2, 100 nM TAMRA-DNA, 1 uM PCNA, 25 C. Crystals: 100 mM Na acetate pH 4.6, 100 mM NaCl, 14% PEG 4K, 20 C; conditions: protein: recombinant;recombinant; tags: ;N-terminal 6-His, PreScission-cleaved; copies: 1;1;1;1;1;3; label: TAMRA at 5' end of template strand; 5' overhang 10 nt on template (3' recessed primer), 13 bp duplex
[6] = molecular target: T1, RFC (Replication Factor C clamp …); assay: fluorescence anisotropy; RFC titrated; 1 uM mutant PCNA, 1 mM ATPgS, 10 mM MgCl2; affinity changes little vs wild-type PCNA; Kd only in figure; Anisotropy: 30 mM Tris pH 7.5, 200 mM NaCl, 2 mM DTT, 1 mM ATPgS, 10 mM MgCl2, 100 nM TAMRA-DNA, 1 uM PCNA, 25 C. Crystals: 100 mM Na acetate pH 4.6, 100 mM NaCl, 14% PEG 4K, 20 C; conditions: protein: recombinant;recombinant; tags: ;N-terminal 6-His, PreScission-cleaved; copies: 1;1;1;1;1;3; label: TAMRA at 5' end of template strand; 5' overhang 10 nt on template (3' recessed primer), 13 bp duplex

single-chain PCNA (three fused PCNA subunits), sequence (P15873 2-257 R110S/Y114S, one chain of several): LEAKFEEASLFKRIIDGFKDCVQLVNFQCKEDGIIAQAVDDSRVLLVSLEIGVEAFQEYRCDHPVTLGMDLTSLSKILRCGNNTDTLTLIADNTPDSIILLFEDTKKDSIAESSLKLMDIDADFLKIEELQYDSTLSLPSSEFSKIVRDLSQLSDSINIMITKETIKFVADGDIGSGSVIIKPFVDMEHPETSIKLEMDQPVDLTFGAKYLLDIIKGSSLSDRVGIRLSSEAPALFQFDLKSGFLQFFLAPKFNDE

B1: crystallization primer-template DNA (dsDNA)
DNA 1: TTTTATACGATGGG
DNA 2: CCCATCGTAT
[1]
  binding result: binds

B2: S. cerevisiae Proliferating Cell Nuclear Antigen (PCNA), wild type (natural protein)
chain: MLEAKFEEASLFKRIIDGFKDCVQLVNFQCKEDGIIAQAVDDSRVLLVSLEIGVEAFQEYRCDHPVTLGMDLTSLSKILRCGNNTDTLTLIADNTPDSIILLFEDTKKDRIAEYSLKLMDIDADFLKIEELQYDSTLSLPSSEFSKIVRDLSQLSDSINIMITKETIKFVADGDIGSGSVIIKPFVDMEHPETSIKLEMDQPVDLTFGAKYLLDIIKGSSLSDRVGIRLSSEAPALFQFDLKSGFLQFFLAPKFNDEE
notes: PCNA, S. cerevisiae; The subunit-with-subunit row from the single-chain PCNA structure is also written on this molecule; also called wild-type PCNA; yeast PCNA; source: E. coli BL21(DE3), purified (HisTrap FF, PreScission protease, HiTrap Q HP); not shown: His6, N-terminal, cleaved
[2]
  stoichiometry N: 3

B3: DNA-30 (dsDNA)
DNA 1: GAGCATTCAAGGACTTAGGTCTGTATTTATCTACCCACAA
DNA 2: TTGTGGGTAGATAAATACAGACCTAAGTCC
[3]
  binding signal: ~5 fold weaker Kd than with wild-type PCNA (nearly 5)
[4]
  Kd: ~100 nM

B4: DNA-13 (dsDNA)
DNA 1: GAGCATTCAAGGACTTAGGTCTG
DNA 2: CAGACCTAAGTCC
[5]
  binding result: binds
[6]
  binding result: binds
